Experimental findings from patent US20140113348A1 are described below.

This experiment addresses meditope-enabled trastuzumab Fab fragment. Kind of experiment: SPR; meditope alone on the Fab fragment, not IgG. Background: SPR reads the build-up and loss of mass on a sensor chip optically.

Chain of meditope-enabled trastuzumab Fab fragment (chain, as listed by the source limits assumed, chain 1 of 2): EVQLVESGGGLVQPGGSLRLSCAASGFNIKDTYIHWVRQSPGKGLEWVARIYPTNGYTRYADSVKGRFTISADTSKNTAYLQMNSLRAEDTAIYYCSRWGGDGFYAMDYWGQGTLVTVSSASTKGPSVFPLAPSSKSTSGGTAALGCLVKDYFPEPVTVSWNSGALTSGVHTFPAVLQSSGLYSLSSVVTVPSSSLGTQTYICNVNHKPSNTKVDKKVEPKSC
Chain of meditope-enabled trastuzumab Fab fragment (chain, as listed by the source limits assumed, chain 2 of 2): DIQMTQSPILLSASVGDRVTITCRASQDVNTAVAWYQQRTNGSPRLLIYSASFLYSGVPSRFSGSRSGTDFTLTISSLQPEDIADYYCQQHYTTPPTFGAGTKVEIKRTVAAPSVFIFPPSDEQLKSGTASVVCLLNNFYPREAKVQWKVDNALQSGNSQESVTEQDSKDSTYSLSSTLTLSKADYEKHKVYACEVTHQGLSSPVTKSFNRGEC

A word on the Kd: it is the concentration at which binding is half-saturated. CQFDLSTRRLKC (modifications not checked) [cQFD meditope (cyclic …)]: the Kd was determined as 1000 nM.
